Experimental findings from publication PMC5755580 are described below.

The target in test [1] is VvPrx3 (C73S) (Vibrio vulnificus). As to the kind of experiment: SDS-PAGE under nonreducing or reducing conditions (intermolecular disulfide bond); reduced VvPrx3 (C73S) reacted with various concentrations of H2O2 or t-BOOH for 30 min at 298 K in 20 mM Tris-HCl pH 8.0, 150 mM NaCl; stopped with iodoacetamide; boiled with or without 10 mM DTT.
Test [2] shares this target. As to the kind of experiment: SDS-PAGE under nonreducing conditions (intermolecular disulfide bond), time course; VvPrx3 (C73S) 70 µM reacted with 50 µM H2O2 for 0-60 s; quenched with 10 mM N-ethylmaleimide; band density by ImageJ.

The stoichiometry N is the number of molecules, sites or subunits per partner or assembly. As to VvPrx3 (C73S) (enzyme), the stoichiometry N in test [1] was 2. This substance registered a protein linked by a disulfide bond at 30 s (70 µM protein, 50 µM H2O2) in test [2] of 30 µM.
